Assay results taken from patent US20220119513A1 (ZOETIS SERVICES, published 2022).
Changes are numbered by the printed parent chain. In names and notes the source's numbering stands. Each block holds one binder with its values, some of them ahead of it.

How the values were obtained:
TGFβ2 (R&D Systems) [1] = target: T1, TGFβ2 (R&D Systems); assay: cell-based or functional assay
T1 sequence (P61812 303-414, species assumed, looked up): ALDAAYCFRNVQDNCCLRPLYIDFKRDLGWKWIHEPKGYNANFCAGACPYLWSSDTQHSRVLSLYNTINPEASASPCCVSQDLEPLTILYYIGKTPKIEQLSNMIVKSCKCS

TGFβ3 (R&D Systems) [2] = target: T2, TGFβ3 (R&D Systems) (Homo sapiens (Human), UniProt P10600 301-412, Active TGFβ3 is a disulfide-linked homodimer of this chain; one copy is given.); assay: cell-based or functional assay
T2 sequence: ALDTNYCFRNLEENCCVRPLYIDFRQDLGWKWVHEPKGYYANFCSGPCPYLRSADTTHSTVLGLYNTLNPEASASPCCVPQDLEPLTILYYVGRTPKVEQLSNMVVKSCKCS

TGFβ1 (R&D Systems) [3] = assay: cell-based or functional assay
TGFβ2 (R&D Systems) [4] = target: T1, TGFβ2 (R&D Systems); assay: SPR full titration
TGFβ3 (R&D Systems) [5] = target: T2, TGFβ3 (R&D Systems); assay: SPR full titration
TGFβ1 (R&D Systems) [6] = target: T3, TGFβ1 (R&D Systems); assay: SPR full titration
T3 construct: also called TGFB1
T3 sequence (P01137 279-390): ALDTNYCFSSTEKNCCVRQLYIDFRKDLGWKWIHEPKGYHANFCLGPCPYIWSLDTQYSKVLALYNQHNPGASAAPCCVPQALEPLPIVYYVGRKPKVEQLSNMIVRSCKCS

pSmad-3, IC50 (TGFβ2 (R&D Systems) [1]): 4.43 nM
pSmad-3, IC50 (TGFβ3 (R&D Systems) [2]): 2.31 nM
pSmad-3, IC50 (TGFβ1 (R&D Systems) [3]): 2.16 nM
B1: affinity matured HcLb 91 (antibody, V domains shown)
VH: EVQLVQSGAEVKKPGASVKVSCKTSGYTFITYWMNWVRQAPGAGLDWMGQIFPAWGSTNYNEMFEGRVTLTADTSTSTAYMELSSLRAGDIAVYYCARGDGNYALDAMDYWGQGTLVTVSS
VL: DIVMTQTPPSLSVSPRETASISCRASESVDSYGNSFMHWYLQKPGQSPQLLIYLASNLESGVSDRFSGSGSGTDFTLRISRVEANDTGVYYCQQNNEDPLTFGQ

Kd (TGFβ2 (R&D Systems) [4]): 4.07 nM
Kd (TGFβ3 (R&D Systems) [5]): 0.476 nM
Kd (TGFβ1 (R&D Systems) [6]): 2.27 nM
pSmad-3, IC50 (TGFβ2 (R&D Systems) [1]): 1.6 nM
pSmad-3, IC50 (TGFβ3 (R&D Systems) [2]): 1.05 nM
pSmad-3, IC50 (TGFβ1 (R&D Systems) [3]): 0.76 nM
B2: affinity matured HcLb 237 (antibody, V domains shown)
VH: B1 VH with S57V, D100Y
VL: DIVMTQTPPSLSVSPRETASISCRASESVDSYGNSFMHWYLQKPGQSPQLLIYLASNLESGVSDRFSGSGSGTDFTLRISRVEANDTGVYYCQQNDEDPLSFGQGTK
notes: full IgG; also called canHcLb/55SW/100DY/57/SV + canHcLb/237ND/242TS

pSmad-3, IC50 (TGFβ2 (R&D Systems) [1]): 8.42 nM
pSmad-3, IC50 (TGFβ3 (R&D Systems) [2]): 1.24 nM
pSmad-3, IC50 (TGFβ1 (R&D Systems) [3]): 1.17 nM
B3: affinity matured HcLb 73 (antibody, V domains shown)
VH: B1 VH with W55S, D100Y
VL: B2 VL with S101T

pSmad-3, IC50 (TGFβ2 (R&D Systems) [1]): 2.77 nM
pSmad-3, IC50 (TGFβ3 (R&D Systems) [2]): 7.79 nM
pSmad-3, IC50 (TGFβ1 (R&D Systems) [3]): 3.26 nM
B4: affinity matured HcLb 190 (antibody, V domains shown)
VH: B1 VH with A54G, W55S, D100Y
VL: B2 VL

Kd (TGFβ2 (R&D Systems) [4]): 4.72 nM
Kd (TGFβ3 (R&D Systems) [5]): 0.649 nM
Kd (TGFβ1 (R&D Systems) [6]): 2.03 nM
pSmad-3, IC50 (TGFβ2 (R&D Systems) [1]): 2.02 nM
pSmad-3, IC50 (TGFβ3 (R&D Systems) [2]): 1.6 nM
pSmad-3, IC50 (TGFβ1 (R&D Systems) [3]): 0.7 nM
B5: affinity matured HcLb 257 (antibody, V domains shown)
VH: B1 VH with I30M, T31K, D100Y
VL: B2 VL
notes: full IgG; also called canHcLb/55SW/100DY/30IM/31TK + canHcLb/237ND/242TS

Kd (TGFβ2 (R&D Systems) [4]): 6.73 nM
Kd (TGFβ3 (R&D Systems) [5]): 0.856 nM
Kd (TGFβ1 (R&D Systems) [6]): 6.18 nM
pSmad-3, IC50 (TGFβ2 (R&D Systems) [1]): 1.85 nM
pSmad-3, IC50 (TGFβ3 (R&D Systems) [2]): 1.37 nM
pSmad-3, IC50 (TGFβ1 (R&D Systems) [3]): 3.16 nM
B6: affinity matured HcLb 262 (antibody, V domains shown)
VH: B1 VH with T31K, D100Y
VL: B1 VL
notes: full IgG; constant regions not restated

Kd (TGFβ2 (R&D Systems) [4]): 3.75 nM
Kd (TGFβ3 (R&D Systems) [5]): 0.78 nM
Kd (TGFβ1 (R&D Systems) [6]): 3.05 nM
pSmad-3, IC50 (TGFβ2 (R&D Systems) [1]): 1.37 nM
pSmad-3, IC50 (TGFβ3 (R&D Systems) [2]): 1.48 nM
pSmad-3, IC50 (TGFβ1 (R&D Systems) [3]): 0.99 nM
B7: affinity matured HcLb 259 (antibody, V domains shown)
VH: B1 VH with S57M, D100Y
VL: B1 VL
notes: as for B6

Kd (TGFβ2 (R&D Systems) [4]): 3.91 nM
Kd (TGFβ3 (R&D Systems) [5]): 0.676 nM
Kd (TGFβ1 (R&D Systems) [6]): 2.58 nM
pSmad-3, IC50 (TGFβ2 (R&D Systems) [1]): 1.71 nM
pSmad-3, IC50 (TGFβ3 (R&D Systems) [2]): 1.44 nM
pSmad-3, IC50 (TGFβ1 (R&D Systems) [3]): 0.78 nM
B8: affinity matured HcLb 217 (antibody, V domains shown)
VH: B1 VH with I30M, D100Y
VL: B2 VL
notes: full IgG; also called canHcLb/S55W/D100Y/I30/M + canHcLb/237ND/242TS

Kd (TGFβ2 (R&D Systems) [4]): 6.44 nM
Kd (TGFβ3 (R&D Systems) [5]): 0.431 nM
Kd (TGFβ1 (R&D Systems) [6]): 3.53 nM
pSmad-3, IC50 (TGFβ2 (R&D Systems) [1]): 5.42 nM
pSmad-3, IC50 (TGFβ3 (R&D Systems) [2]): 1.54 nM
pSmad-3, IC50 (TGFβ1 (R&D Systems) [3]): 1.43 nM
B9: affinity matured HcLb 239 (antibody, V domains shown)
VH: B1 VH with T31K, D100Y
VL: B2 VL
notes: full IgG; also called canHcLb/55SW/100DY/31/TK + canHcLb/237ND/242TS

Kd (TGFβ2 (R&D Systems) [4]): 4.4 nM
Kd (TGFβ3 (R&D Systems) [5]): 8.6 nM
Kd (TGFβ1 (R&D Systems) [6]): 3.81 nM
pSmad-3, IC50 (TGFβ2 (R&D Systems) [1]): 0.79 nM
pSmad-3, IC50 (TGFβ3 (R&D Systems) [2]): 1.09 nM
pSmad-3, IC50 (TGFβ1 (R&D Systems) [3]): 0.61 nM
B10: affinity matured HcLb 258 (antibody, V domains shown)
VH: B1 VH with I30M, T31K, D100Y
VL: B1 VL
notes: as for B6

Kd (TGFβ2 (R&D Systems) [4]): 2.91 nM
Kd (TGFβ3 (R&D Systems) [5]): 0.37 nM
Kd (TGFβ1 (R&D Systems) [6]): 3.76 nM
pSmad-3, IC50 (TGFβ2 (R&D Systems) [1]): 2.1 nM
pSmad-3, IC50 (TGFβ3 (R&D Systems) [2]): 1.03 nM
pSmad-3, IC50 (TGFβ1 (R&D Systems) [3]): 1.41 nM
B11: affinity matured HcLb 263 (antibody, V domains shown)
VH: B1 VH with T28I, D100Y
VL: B1 VL
notes: as for B6

Kd (TGFβ2 (R&D Systems) [4]): 3.92 nM
Kd (TGFβ3 (R&D Systems) [5]): 0.87 nM
Kd (TGFβ1 (R&D Systems) [6]): 6.18 nM
pSmad-3, IC50 (TGFβ2 (R&D Systems) [1]): 1.15 nM
pSmad-3, IC50 (TGFβ3 (R&D Systems) [2]): 1.2 nM
pSmad-3, IC50 (TGFβ1 (R&D Systems) [3]): 0.69 nM
B12: affinity matured HcLb 261 (antibody, V domains shown)
VH: B1 VH with I30M, D100Y
VL: B1 VL
notes: as for B6

Kd (TGFβ2 (R&D Systems) [4]): 3.98 nM
Kd (TGFβ3 (R&D Systems) [5]): 0.457 nM
Kd (TGFβ1 (R&D Systems) [6]): 2.03 nM
pSmad-3, IC50 (TGFβ2 (R&D Systems) [1]): 1.68 nM
pSmad-3, IC50 (TGFβ3 (R&D Systems) [2]): 1.33 nM
pSmad-3, IC50 (TGFβ1 (R&D Systems) [3]): 0.71 nM
B13: affinity matured HcLb 233 (antibody, V domains shown)
VH: B1 VH with S57M, D100Y
VL: B2 VL
notes: full IgG; also called canHcLb/55SW/100DY/57/SM + canHcLb/237ND/242TS

Kd (TGFβ2 (R&D Systems) [4]): 4.36 nM
Kd (TGFβ3 (R&D Systems) [5]): 0.79 nM
Kd (TGFβ1 (R&D Systems) [6]): 3.79 nM
pSmad-3, IC50 (TGFβ2 (R&D Systems) [1]): 1.64 nM
pSmad-3, IC50 (TGFβ3 (R&D Systems) [2]): 1.24 nM
pSmad-3, IC50 (TGFβ1 (R&D Systems) [3]): 1.33 nM
B14: affinity matured HcLb 260 (antibody, V domains shown)
VH: SEVQLVQSGAEVKKPGASVKVSCKTSGYTFITYWMNWVRQAPGAGLDWMGQIFPAWGVTNYNEMFEGRVTLTADTSTSTAYMELSSLRAGDIAVYYCARGYGNYALDAMDYWGQGTLVTVSS
VL: B1 VL
notes: as for B6
